Test results as given in publication PMC4072508, “Genome-Wide Prediction and Validation of Peptides That Bind Human Prosurvival Bcl-2 Proteins” (PLoS Computational Biology, 2014).

B1: ATP2A3 (peptide)
chain: KGTAVAICRRLGIFLDTEDVAGKAYT
B2: DHX30 (peptide)
chain: PVESSWIAPELRLQSDDILPLGKDSG
B3: FOXI1 (peptide)
chain: PDKRLTLSQIYQYVADNFPFYNKSKA
B4: TMEM184C (peptide)
chain: SDIRDDISEQVRHVGRTVRGHPRKKL
B5: SYNE1 (peptide)
chain: VTLLSEVEKMLSNFGDCVQYKEIVKN
B6: RAD52 (peptide)
chain: EAVTDGLKRALRSFGNALGNCILDKD
B7: ITGA7 (peptide)
chain: GSPDSMFGISLAVLLDLNQDGFPDIA
B8: DYNC1H1 (peptide)
chain: VLAPVQLGKWDVLFCDEINLPDMDKY
B9: EXOC4 (peptide)
chain: MQTLSELAKSDQDMADRCLLVLHLEV
B10: ITGA7 (peptide)
chain: GSPDSMFGISLAVLGDLNQDGFPDIA
B11: SLC26A4 (peptide)
chain: LSIIYTLVEIFQNIGDTNLADFTAGL
B12: MCF2L2 (peptide)
chain: ADAIRPRCVEDRHLCDDFINGNKKKW
B13: KCNH1 (peptide)
chain: VHKHSRLAEVLQLGLDILPQYKQEAP

Target: T1, Bfl-1, Q16548
T1 chain: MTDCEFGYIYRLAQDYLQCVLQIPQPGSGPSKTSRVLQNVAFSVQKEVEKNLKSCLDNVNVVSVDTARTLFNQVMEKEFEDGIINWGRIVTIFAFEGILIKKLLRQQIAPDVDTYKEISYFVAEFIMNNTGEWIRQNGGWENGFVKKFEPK
Assay: peptide SPOT array, c-Myc-tagged receptor at 1 uM or 100 nM, anti-c-Myc-Cy3

Row | SPOT signal as a fraction of Bim BH3's signal on the same receptor and array | Binder
1 | 0.09 | B1
2 | 0.04 | B2
3 | 0.56 | B3
4 | 0.29 | B4
5 | 0.06 | B5
6 | 0.06 | B6
7 | 0.07 | B7
8 | 0.07 | B8
9 | 0.04 | B9
10 | 0.08 | B10
11 | 0.03 | B11
12 | 0.07 | B12
13 | 0.07 | B13

Target: T2, Mcl-1, Q07820
T2 chain: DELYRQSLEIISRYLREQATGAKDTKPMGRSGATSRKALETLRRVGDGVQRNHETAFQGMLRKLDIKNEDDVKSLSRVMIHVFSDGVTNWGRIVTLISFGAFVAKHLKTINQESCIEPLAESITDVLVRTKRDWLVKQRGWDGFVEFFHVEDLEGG
Assay: as above

Row | SPOT signal as a fraction of Bim BH3's signal on the same receptor and array | Binder
14 | 0.16 | B1
15 | 0.04 | B2
16 | 0.56 | B3
17 | 0.32 | B4
18 | 0.08 | B5
19 | 0.1 | B6
20 | 0.04 | B7
21 | 0.05 | B8
22 | 0.04 | B9
23 | 0.04 | B10
24 | 0.07 | B11
25 | 0.06 | B12
26 | 0.14 | B13

Target: Bcl-xL, Q07817
Assay: as above

Sequence of Bcl-xL, Q07817 (Q07817 1-209): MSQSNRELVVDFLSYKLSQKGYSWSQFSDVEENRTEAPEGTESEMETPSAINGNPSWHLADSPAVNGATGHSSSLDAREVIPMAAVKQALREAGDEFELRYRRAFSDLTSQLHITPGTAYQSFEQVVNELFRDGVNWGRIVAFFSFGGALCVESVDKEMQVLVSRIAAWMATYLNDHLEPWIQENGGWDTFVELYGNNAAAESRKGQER

Row | SPOT signal as a fraction of Bim BH3's signal on the same receptor and array | Binder
27 | 0.16 | B1
28 | 0.05 | B2
29 | 1.74 | B3
30 | 0.92 | B4
31 | 0.11 | B5
32 | 0.15 | B6
33 | 0.07 | B7
34 | 0.07 | B8
35 | 0.05 | B9
36 | 0.07 | B10
37 | 0.06 | B11
38 | 0.15 | B12
39 | 0.12 | B13
